Experimental data taken from the nanobody polyreactivity screen of Harvey et al. (2022).

experiment: yeast display, Sf9 membrane polyspecificity reagent, FACS + sequencing; frameworks hold sequencing errors
Procedure, shortened: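 Genes from sorted yeast were amplified by colony PCR, read by MiSeq 2 × 250 sequencing and filtered on CDR length. These cells carried a synthetic nanobody library in Saccharomyces cerevisiae BJ5465 and were sorted by FACS into low and high (top ~1%) gates on anti-HA and streptavidin fluorescence. Polyreactivity is labelled according to the gate of origin.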

Row | Sequence | polyreactivity (PSR sort gate)
1 | QVQLVESGGGLDQAGGSLRLSWAASAFIFGLYAMGWYRQAPGKERELVAAITSVESTKYADSVKGRFTISRDHAKNTVYLQMNSLKPEDTAVYYCATDWSLEDDYWGQGTQVTVSS | low polyreactivity
2 | QVQLVESGGGLDQAGGSLRLTCAPYGLISDRNAIGWYRQAPGKERDLVASIRSGGSTYYADSVKGRFTFSRDNAKNTVYLEMNSLKPEDTAVYYCAAGGGHTPVSYYLVPYMDYWGQGTQVTVAS | low polyreactivity
3 | QVQLVESGGGLDQAGVRLRLSCAASGRIFISYAMGWYRQAPGNDTELVARISTRGGSTYYADSVKGRFTISRDNAKNTVYLQMNSLKPDDTAVYYCAADHHFCQYPGGGNRWYYYWGQGTHVTVSS | high polyreactivity
4 | QVQLVESGGGLDQAGVSLRLSCAATGRIFYHYAMGWYRHEPGKERELVASITTSGDSTYYADSVKGRFTISRDTAKNTVYLQMNSLKPEDTAVYYCAARSYRGSRYDYWGQGTQVTVSS | high polyreactivity
5 | QVQLVESGGGLEQAGGRLRLICAASGRTFDRYPMGWYRQAPGKESELVAAITWSGGRTYYADSVKGRFTISRDNAKNTVYLQMNSLKPEDTAVYYCAADNSYRGYHSPYEYWGQGTQVTVSS | low polyreactivity
6 | QVQLVESGGGLFEEGGSLRISCAASGRIFAPYAMGWYRHAPGKERELVAAISWSDVSTDYAVSVKGRFTISRDNAKNTVYLQMYSLKPEVTAVYYCAAAYAGYRGWYYYWGQVTQVTVSS | high polyreactivity
7 | QVQLVESGGGLFHAGGSLRLSCAASGSTFGGNDMGWSIQAPGKERELVASISDGGRTNYADSVKGRFTISRDNAKNTVYLQMNSLKPEDTAVYYCAADYAPVAFDYWGQGTQVTVSS | low polyreactivity
8 | QVQLVESGGGLFHAGGSLRLSCPDSGSTFYRYTMGCYRQAPGKERELVAAITSGGGTDYADSVKARFTISRDNAKNTVYLQLISLKPEDTAVYFCADFLSWRDYYLYWRGSWREDYWGQGTQVTVSS | low polyreactivity
9 | QVQLVESGGGLFKAGGSLRLSCAASGFNFSNYAKGWYRQAPGKERELVATISWSGGRTYYADSVKGRFTISRDNAKNTVYLQMNSLKPEDTEVYYCAAEYYTGYFKYDYWGQGTQVTVSS | high polyreactivity
10 | QVQLVESGGGLFQAGGILRLSCAASGIIFWDNAMGWYRQAPGKERELVAAISRSGSRTYYADSVKGRFTISRDNAKNTVYLQMNSLKPEDTAVYYCARRYRARGSMYYWGQGTQVTVSS | high polyreactivity
11 | QVQLVESGGGLFQAGGRLRLSCAPSGFNFGGYVMGWYRQAPGKDRELVAAISSSGGITHYADSVKGRFTISRDNANNTVYLQMNSLKPEDTEVYYCNALYRKRYYWGQGTQVTVSS | high polyreactivity
12 | QVQLVESGGGLFQAGGSHRLSCAASGSTFKQYAMGWYRQAPGKERELVAAIDRGGSTYYADSVKGRFTITRDNAKITVYLQMTSLKPEDTAVYYCAARFVQYRYAYDYWGQGTQVTVSS | low polyreactivity
13 | QVQLVESGGGLFQAGGSLRISCAASGRIFTKNTMGWYRQPPWKERELFAAIRSRAGSTYYADSVKGRFTISRDNAKNTVYLQMNSLKPEDTAFYYCAVPWFRSVDFDYWGQGTQVTVSS | low polyreactivity
14 | QVQLVESGGGLFQAGGSLRLICAASGSTFRFYAMGWYRQAPAKERELVAVIRSTGSTYYADSVKGRFTISRDNAKNTVYLQMYSLNPDDTAVYYCAAQNAWWSNGRSYDYWGQGTQVTVSS | low polyreactivity
15 | QVQLVESGGGLFQAGGSLRLSCAASGFIFRSNAMGGYRHAPGKERELVAAISGGGITYYADSVKGRFTISRDNAKNTVYLQMNSLKPEDTAVYYCAVRWYFKTHWGGYHPYEYCGQGTQVTVSS | high polyreactivity
16 | QVQLVESGGGLFQAGGSLRLSCAASGFTFTRYAMGWYRQAPGKERELVATITKRGGSTYYADSVKGRFTISRDNAKNTVYLQMNRLKPEDTAVYYCAADGASRALYDYWGQGTQVTVSS | high polyreactivity

Row | Sequence | polyreactivity (PSR sort gate)
17 | QVQLVESGGGLFQAGGSLRLSCAASGGIFDVYDMGWYRQAPGKERELVAAISEKGGSTYYADSVKGRFTISRDNAKNTGYLQMNSLKPEDTAVYYCAADYVCLSVFSYWAWYDYWGQGTQVNVSS | low polyreactivity
18 | QVQLVESGGGLFQAGGSLRLSCAASGGIFYGNVMGWYRQAPGKERELVADITSVGSTYYADSVKGRFTISRDNAKNTVYLQMNSLIPEDTAVYYCAAEPDHVADSHSGYDYWGQGTQVTVSS | low polyreactivity
19 | QVQLVESGGGLFQAGGSLRLSCAASGIIFTSYAMGWYRQAPGKESEFVAAITRSGSRTYYADSVKGRFTISRDNAKNTVYLQMNRLKPEDTAVYYCAARTYHDSSDSYAGGYWGQGTQVTVSS | low polyreactivity
20 | QVQLVESGGGLFQAGGSLRLSCAASGIIFYDYAMGRYRQPPAKERELVAAITSNGDNTYYADSVKWRFTISRDNAKNTVYLQMNILKPEDTAVYYCAVDGSFAADFDNYLEEYGYWGQGTQVTVSS | low polyreactivity
21 | QVQLVESGGGLFQAGGSLRLSCAASGITFKGYTMGWYRQAPGKERELVATISRGGRTYADSVKGRFTISRDNAKNTVLLQMNSLKPEDTAVYYCAADKYWAQNDYWGQGTQVTVSS | low polyreactivity
22 | QVQLVESGGGLFQAGGSLRLSCAASGRIFGWYAMGWYRQAPGKDRELVAAMSSSTSTYYADSVKGRFTISRDNEKNTVYLEMNSLKPEDTAVYYCNADWYYQRGQNYWFRYDYWGQGTQVTVCS | high polyreactivity
23 | QVQLVESGGGLFQAGGSLRLSCAASGRIFGYNSMGWDRQAPGKERELVAAIRRRGGTTYYADSVKGRFTISRDNAKNTVYLQMNSLKPEDNAVYYCAADLTFSYRQSAGRYSTYGYWGQGTQVTVSS | high polyreactivity
24 | QVQLVESGGGLFQAGGSLRLSCAASGRTFAIYDMGWYRQAPGKEREVVAAIDYSDGSTYYADSVKGRFTISRDNAKNTVYLQMNSLKPEDTAVYYCAADYDAIYLWWGYDYWGQGTQVTVSS | low polyreactivity
25 | QVQLVESGGGLFQAGGSLRLSCAASGRTFEINAMGWYRQAPGKERELVARISWSGGRTYYADSVKGRFTISRDNAKNTVYLQMNSLKPEDTAVYYCAAVLYSGGNYDSWGQGTQVTGSS | high polyreactivity
26 | QVQLVESGGGLFQAGGSLRLSCAASGRTFGKNAMGWYRQAPGKEREFVAAITSRGGSTYYADSVKGRFTISRDNAKNTVYLQMNSLNPEDTGVYYCNREYKRPSQRNEHFYCGQGTQVTVSS | low polyreactivity
27 | QVQLVESGGGLFQAGGSLRLSCAASGRTFGYNVMGWYRQATGKERELVAGITSSGSTNYADSVKGRFTISRDNVKNTFYLQMNSLKPEETAVYYCAAGDRRWGFQVGYWGQGTQVTVSS | high polyreactivity
28 | QVQLVESGGGLFQAGGSLRLSCAASGRTFRDYVMGWYRKATGKERELVAAISTRGASTYYADSVKGRFTISRDNAKNTVDLQMNSLKPEDTAVYYCAARSTRRGNEYDYWGQGTQVTGSS | high polyreactivity
29 | QVQLVESGGGLFQAGGSLRLSCAASGRTFRSYAMGWYRQAPGKERELVAAISTGGSTYYADSVKGRFTISRDNAKNTVYLQMNSLKPEDTAVYYCAAEFNAYTPAGLWYTYYYWGQGTQVTVSS | high polyreactivity
30 | QVQLVESGGGLFQAGGSLRLSCAASGRTFTWYAMGWYRQAPGKERELVAAISFSGGSTYYADSVKGRFTISRDNAKNTVYLQMNSLKPEDTAVYYCARPSGDAWEGPRMDYWGQGTQVTVSS | low polyreactivity
31 | QVQLVESGGGLFQAGGSLRLSCAASGRTFWRYAMGWSRQAPGKERELVAAITSGGGSTFYADSVKGRFTISRDYAKNTVDLQMNILKAEVTAVYYCNREYRWGNSLYSRYDYWGQGTQVTVSS | high polyreactivity
